For the assay, the target named is mXFP-TpoR (thrombopoietin receptor N-terminally fused to nonfluorescent mEGFP Tyr66Phe) (UniProt P40238). Kind of assay: live-cell micropatterning with FRAP.

For the substance JAK2 FS L224E (domain or fragment), the fold reduction of binding stability against JAK2 FS wt was 20 fold.
